Measured values taken from patent US20240368267A1 (KODIAK SCIENCES, published 2024).
Changes are numbered by the printed parent chain. Names may count otherwise.

B1: anti-IL-6 antibody, heavy chain T63P, G66D / light chain WT (antibody, human IgG1, V domains shown)
VH: EVQLVESGGGLVQPGGSLRLSCAASGFTFSPFAMSWVRQAPGKGLEWVAKISPGGSWTYYSDPVTDRFTFSLDTSKSTAYLQMNSLRAEDTAVYYCARQLWGYYALDIWGQGTLVTVSS
VL: DIQLTQSPSSLSASVGDRVTITCSASISVSYMYWYQQKPGKAPKLLIYDMSNLASGVPSRFSGSGSGTDFTLTISSLQPEDFATYYCMQWSGYPYTFGQGTKVEIK
notes: Derived as m2; Engineered human IgG1
B2: anti-IL-6 antibody, heavy chain T63R, G66D / light chain WT (antibody, human IgG1, V domains shown)
VH: B1 VH with P63R
VL: B1 VL
notes: as for B1
B3: anti-IL-6 antibody, heavy chain T63S, G66D / light chain WT (antibody, human IgG1, V domains shown)
VH: B1 VH with P63S
VL: B1 VL
notes: as for B1
B4: anti-IL-6 antibody, heavy chain T63V, G66D / light chain WT (antibody, human IgG1, V domains shown)
VH: B1 VH with P63V
VL: B1 VL
notes: as for B1
B5: anti-IL-6 antibody, heavy chain T63W, G66D / light chain WT (antibody, human IgG1, V domains shown)
VH: B1 VH with P63W
VL: B1 VL
notes: as for B1
B6: anti-IL-6 antibody, heavy chain T63Y, G66D / light chain WT (antibody, human IgG1, V domains shown)
VH: B1 VH with P63Y
VL: B1 VL
notes: as for B1
B7: anti-IL-6 antibody, heavy chain T65A, G66D / light chain WT (antibody, human IgG1, V domains shown)
VH: B1 VH with P63T, T65A
VL: B1 VL
notes: as for B1
B8: anti-IL-6 antibody, heavy chain T65D, G66D / light chain WT (antibody, human IgG1, V domains shown)
VH: B1 VH with P63T, T65D
VL: B1 VL
notes: as for B1
B9: anti-IL-6 antibody, heavy chain T65E, G66D / light chain WT (antibody, human IgG1, V domains shown)
VH: B1 VH with P63T, T65E
VL: B1 VL
notes: as for B1
B10: anti-IL-6 antibody, heavy chain T65F, G66D / light chain WT (antibody, human IgG1, V domains shown)
VH: B1 VH with P63T, T65F
VL: B1 VL
notes: as for B1
B11: anti-IL-6 antibody, heavy chain T65G, G66D / light chain WT (antibody, human IgG1, V domains shown)
VH: B1 VH with P63T, T65G
VL: B1 VL
notes: as for B1
B12: anti-IL-6 antibody, heavy chain T65H, G66D / light chain WT (antibody, human IgG1, V domains shown)
VH: B1 VH with P63T, T65H
VL: B1 VL
notes: as for B1
B13: anti-IL-6 antibody, heavy chain T65K, G66D / light chain WT (antibody, human IgG1, V domains shown)
VH: B1 VH with P63T, T65K
VL: B1 VL
notes: as for B1
B14: anti-IL-6 antibody, heavy chain T65L, G66D / light chain WT (antibody, human IgG1, V domains shown)
VH: B1 VH with P63T, T65L
VL: B1 VL
notes: as for B1
B15: anti-IL-6 antibody, heavy chain T65P, G66D / light chain WT (antibody, human IgG1, V domains shown)
VH: B1 VH with P63T, T65P
VL: B1 VL
notes: as for B1

The binders below were run against T1, human IL-6 (human, UniProt P05231 30-212) (assay: SPR (Biacore T200), antibody from cell supernatant captured on Protein A, IL-6 flowed over, 37 C).
T1 construct: also called interleukin-6
T1 sequence (P05231 30-212 limits assumed): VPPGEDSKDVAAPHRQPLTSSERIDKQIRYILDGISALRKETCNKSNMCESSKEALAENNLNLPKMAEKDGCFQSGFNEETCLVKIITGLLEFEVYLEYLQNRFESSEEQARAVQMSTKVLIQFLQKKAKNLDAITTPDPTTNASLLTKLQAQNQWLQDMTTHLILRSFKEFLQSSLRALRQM
Method: Those four positions were selected based on their tolerance for mutations as observed in bacterial and mammalian screens. […] These cultures were centrifuged and supernatants containing secreted antibodies were harvested and diluted in HBS-EP+ running buffer (1:20 ratio).
Antibodies were captured on a Protein A chip (GE) by injecting 1:20 cell supernatant dilutions at 10 μL/min for 60 seconds. […] The sensor chip was regenerated by a 60 seconds injection of 10 mM Glycine pH 1.7 at the flow rate of […]. […] For this setup, 1 μg/mL of purified antibody was injected over a Protein A chip at 10 μL/min for 25 seconds. […] The sensor chip was regenerated by a 60 seconds injection of 10 mM Glycine pH 1.7 at flow rate of 50 μL/min. Data analysis for supernatant and purified samples were performed using BIAevaluation software (GE). All sensorgrams were double reference subtracted and fit using a 1:1 Langmuir binding model.
A Kd of 0.21 nM, a koff of 0.000436 s⁻¹ and a kon of 2.08e+06 M⁻¹ s⁻¹ were found for B1 in this work. A Kd of 0.173 nM, a koff of 0.00046 s⁻¹ and a kon of 2.66e+06 M⁻¹ s⁻¹ were found for B2 in this work. A Kd of 0.184 nM, a koff of 0.000464 s⁻¹ and a kon of 2.52e+06 M⁻¹ s⁻¹ were found for B3 in this work. A Kd of 0.217 nM, a koff of 0.000399 s⁻¹ and a kon of 1.84e+06 M⁻¹ s⁻¹ were found for B4 in this work. A Kd of 0.251 nM, a koff of 0.000427 s⁻¹ and a kon of 1.7e+06 M⁻¹ s⁻¹ were found for B5 in this work. A Kd of 0.21 nM, a koff of 0.000383 s⁻¹ and a kon of 1.82e+06 M⁻¹ s⁻¹ were found for B6 in this work. A Kd of 0.222 nM, a koff of 0.000364 s⁻¹ and a kon of 1.64e+06 M⁻¹ s⁻¹ were found for B7 in this work. A Kd of 0.203 nM, a koff of 0.000442 s⁻¹ and a kon of 2.18e+06 M⁻¹ s⁻¹ were found for B8 in this work. A Kd of 0.194 nM, a koff of 0.000427 s⁻¹ and a kon of 2.2e+06 M⁻¹ s⁻¹ were found for B9 in this work. A Kd of 0.223 nM, a koff of 0.000348 s⁻¹ and a kon of 1.56e+06 M⁻¹ s⁻¹ were found for B10 in this work. A Kd of 0.123 nM, a koff of 0.000218 s⁻¹ and a kon of 1.77e+06 M⁻¹ s⁻¹ were found for B11 in this work. A Kd of 0.219 nM, a koff of 0.000356 s⁻¹ and a kon of 1.63e+06 M⁻¹ s⁻¹ were found for B12 in this work. A Kd of 0.262 nM, a koff of 0.000412 s⁻¹ and a kon of 1.57e+06 M⁻¹ s⁻¹ were found for B13 in this work. A Kd of 0.212 nM, a koff of 0.000375 s⁻¹ and a kon of 1.77e+06 M⁻¹ s⁻¹ were found for B14 in this work. A Kd of 0.369 nM, a koff of 0.000568 s⁻¹ and a kon of 1.54e+06 M⁻¹ s⁻¹ were found for B15 in this work.
